What is called pKd is the Kd on a negative log10 scale, so that one unit is a factor of ten.

Experimental findings from publication PMC6923591 are described below.

Assay [1] addresses Ptpn6 Y208N C-SH2 domain (recombinant C-terminal SH2 domain of Ptpn6/SHP-1 with Y208N). The experiment in a line: ITC. (Isothermal titration calorimetry measures the heat released or taken up as one component is titrated into another.)
In assay [2] the target is Ptpn6 wt C-SH2 domain (recombinant C-terminal SH2 domain of Ptpn6/SHP-1). The experiment in a line: ITC.

pKd: −log10 of the molar value.

FcγR2b phosphopeptide: the pKd in assay [1] was 4.98; in assay [2], 4.70.
